Experimental data published in US20220175942A1 (OXFORD UNIVERSITY INNOVATION, published 2022).
Substitutions are numbered along the chain they refer to.

Columns and labels:
[1] = target: T1, P546_AMBCA (Amblyomma cajennense, UniProt A0A023FBW7 22-118); test: yeast surface display FACS re-test, >3 fold MFI over control (col D);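 also: yeast displaying putative tick Evasins stained with biotinylated human chemokine plus streptavidin-Alexa647, flow cytometry, positive when MFI exceeds 3-fold the empty-vector or no-chemokine background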
T1 construct: Tick evasin; also called Evasin
T1 sequence: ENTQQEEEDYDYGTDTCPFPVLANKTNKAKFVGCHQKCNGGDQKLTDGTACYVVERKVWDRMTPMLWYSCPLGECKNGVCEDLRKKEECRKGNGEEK

[2] = target: T2, P983_AMBCA (Amblyomma cajennense, UniProt A0A023FFB5 22-119); test: as above
T2 construct: Tick evasin; also called Evasin
T2 sequence: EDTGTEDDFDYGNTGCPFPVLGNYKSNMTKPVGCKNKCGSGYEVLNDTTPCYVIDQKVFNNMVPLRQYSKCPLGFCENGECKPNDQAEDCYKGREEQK

[3] = target: T3, P985_AMBPA (Amblyomma parvum, UniProt A0A023FT45 25-132); test: as above
T3 construct: Tick evasin; also called Evasin
T3 sequence: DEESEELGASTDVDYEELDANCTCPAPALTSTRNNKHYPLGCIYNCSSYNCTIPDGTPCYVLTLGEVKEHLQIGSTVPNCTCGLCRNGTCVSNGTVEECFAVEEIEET

[4] = target: T4, P1180_AMBTR (Amblyomma triste, UniProt A0A023G6B6 26-116); test: yeast surface display library FACS screen, labelled chemokine (col C: isolated in)
T4 construct: Tick evasin; also called Evasin
T4 sequence: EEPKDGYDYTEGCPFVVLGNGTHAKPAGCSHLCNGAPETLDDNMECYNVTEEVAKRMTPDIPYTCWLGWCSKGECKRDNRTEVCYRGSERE

[5] = target: T5, P1181_AMBMA (Amblyomma maculatum, UniProt G3MIX6 26-115); test: as above
T5 construct: Tick evasin; also called Evasin
T5 sequence: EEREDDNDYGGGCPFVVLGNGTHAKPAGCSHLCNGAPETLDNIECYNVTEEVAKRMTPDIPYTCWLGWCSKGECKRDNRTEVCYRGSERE

[6] = target: T6, P1182_AMBMA (Amblyomma maculatum, UniProt G3MJ83 27-115); test: as above
T6 construct: Tick evasin; also called Evasin
T6 sequence: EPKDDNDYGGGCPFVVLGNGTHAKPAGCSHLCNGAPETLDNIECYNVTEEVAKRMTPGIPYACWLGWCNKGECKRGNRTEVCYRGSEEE

[7] = target: T7, P1243_AMBAM (Amblyomma americanum, UniProt A0A0C9S461 26-123); test: as above
T7 construct: Tick evasin; also called Evasin
T7 sequence: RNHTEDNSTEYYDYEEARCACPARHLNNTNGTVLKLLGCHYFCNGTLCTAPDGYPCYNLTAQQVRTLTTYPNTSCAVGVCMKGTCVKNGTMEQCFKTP

[8] = target: T8, P974_AMBCA (Amblyomma cajennense, UniProt A0A023FDY8 22-118); test: as above
T8 construct: Tick evasin; also called Evasin
T8 sequence: T1 sequence with E8Q, S69E, E88D

[9] = target: T9, P991_AMBCA (Amblyomma cajennense, UniProt A0A023FFD0 29-136); test: as above
T9 construct: Tick evasin; also called Evasin
T9 sequence: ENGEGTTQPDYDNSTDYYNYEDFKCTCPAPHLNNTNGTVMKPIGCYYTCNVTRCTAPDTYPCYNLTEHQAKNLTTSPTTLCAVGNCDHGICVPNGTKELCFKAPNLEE

Measured: binding result

B1: CCL4 (ligand)
chain: APMGSDPPTACCFSYTARKLPRNFVVDYYETSSLCSQPAVVFQTKRSKQVCADPSESWVQEYVYDLELN
notes: Biotinylated (detected with streptavidin-Alexa647) in yeast display; also called human CCL4
binds: [1] | [2] | [3] | [4] | [5] | [6] | [7] | [8] | [9]
